Measurements: patent US20200069775A1, “BRAIN OSTEOCALCIN RECEPTOR AND COGNITIVE DISORDERS” (The Trustees of Columbia University in the City of New York, priority 2017, published 2020)

Target: T1, Gpr158 (Mus musculus, UniProt Q8C419)
T1 sequence (Q8C419 25-1200): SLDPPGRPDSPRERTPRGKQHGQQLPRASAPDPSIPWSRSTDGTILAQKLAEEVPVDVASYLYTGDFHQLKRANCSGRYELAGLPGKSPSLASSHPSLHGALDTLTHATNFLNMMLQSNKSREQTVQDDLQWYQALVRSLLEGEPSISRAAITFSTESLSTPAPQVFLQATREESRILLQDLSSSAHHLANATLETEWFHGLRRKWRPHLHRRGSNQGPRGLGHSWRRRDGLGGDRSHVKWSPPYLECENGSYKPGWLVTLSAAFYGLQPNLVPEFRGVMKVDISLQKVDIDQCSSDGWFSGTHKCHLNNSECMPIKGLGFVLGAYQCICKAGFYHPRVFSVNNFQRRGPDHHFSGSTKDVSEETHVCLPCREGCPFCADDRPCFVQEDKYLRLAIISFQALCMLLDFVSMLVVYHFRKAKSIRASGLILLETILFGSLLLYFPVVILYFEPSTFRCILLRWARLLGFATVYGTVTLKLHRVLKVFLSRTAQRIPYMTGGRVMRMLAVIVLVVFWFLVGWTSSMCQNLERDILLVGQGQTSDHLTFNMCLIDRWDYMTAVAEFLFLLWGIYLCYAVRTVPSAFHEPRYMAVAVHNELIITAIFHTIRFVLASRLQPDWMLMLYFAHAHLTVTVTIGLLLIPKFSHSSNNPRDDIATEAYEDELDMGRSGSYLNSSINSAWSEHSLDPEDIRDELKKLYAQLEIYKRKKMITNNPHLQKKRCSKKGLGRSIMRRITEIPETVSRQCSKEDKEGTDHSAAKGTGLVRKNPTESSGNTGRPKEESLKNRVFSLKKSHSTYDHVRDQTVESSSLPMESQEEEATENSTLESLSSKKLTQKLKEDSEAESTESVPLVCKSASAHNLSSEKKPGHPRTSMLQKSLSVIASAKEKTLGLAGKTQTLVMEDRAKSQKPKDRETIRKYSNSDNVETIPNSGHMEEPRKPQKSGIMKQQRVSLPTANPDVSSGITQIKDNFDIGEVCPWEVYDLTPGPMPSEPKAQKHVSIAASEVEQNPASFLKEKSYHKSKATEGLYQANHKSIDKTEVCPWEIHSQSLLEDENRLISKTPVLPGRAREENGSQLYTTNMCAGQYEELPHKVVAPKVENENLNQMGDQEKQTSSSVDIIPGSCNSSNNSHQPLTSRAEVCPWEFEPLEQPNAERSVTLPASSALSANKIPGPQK
Experiment: Whole-cell current clamp in CA3 pyramidal neurons of WT and Gpr158−/− hippocampal slices
Format: cell-based
Set-up: visually identified pyramidal neurons in the CA3 area of the hippocampus; from tissue; host or cells: coronal hippocampal slices of 3-4 week old male WT and Gpr158-/- mice
Description: Coronal brain slices containing the hippocampus were prepared from wild type and KO mice (3-4 weeks old, male) as previously reporte. Briefly, mice were anesthetized with isoflurane and then decapitated to harvest brains, which were rapidly removed and immersed in an oxygenated cutting solution at 4° C. containing (in mM): sucrose 220, KCl 2.5, CaCl2 1, MgCl2 6, NaH2PO4 1.25, NaHCO3 26, and glucose 10, and adjusted to pH 7.3 with NaOH. Coronal slices containing the hioopcampus (300 μm thick) were cut with a vibratome, trimmed to contain just the hippocampus. After preparation, slices were stored in a holding chamber with an oxygenated (with 5% CO2 and 95% O2) artificial cerebrospinal fluid (ACSF) containing (in mM): NaCl 124, KCl3, CaCl2 2, MgCl2 2, NaH2PO4 1.23, NaHCO3 26, glucose 10, pH 7.4 with NaOH. The slices were eventually transferred to a recording chamber constantly perfused with ACSF at 33° C. at a rate of 2 ml/min after at least a 1 hour recovery in the storage chamber. […] After a stable base of APs were recorded for 10 minutes, osteocalcin was applied to the recorded cells through bath application at a concentration of 10 ng/ml for 5-10 minutes and then washed out with ACSF. […] Action potentials were detected and analyzed with AxoGraph X and plotted with Igor Pro software (WaveMetrics, Lake Oswego, Oreg.).

## osteocalcin: Recombinant osteocalcin bacterially produced, cleaved from the GST subunit; completely undercarboxylated at all three sites; full-length mouse osteocalcin (YLGASVPSPDPLEPTREQCELNPACDELSDQYGLKTAYKRIYGITI)
WT
  CA3 pyramidal neurons showing the effect on spontaneous AP frequency: 4 of 4 cells
WT hippocampi, 10 ng/ml
  action potential frequency in pyramidal cells of the CA3 region: significantly enhanced the action potential frequency
